Data published in patent US20220175781A1, “CD40L COMPOSITIONS AND METHODS FOR TUNABLE REGULATION” (Obsidian Therapeutics, Inc., priority 2019, published 2022).
Values joined by “and” are separate entries in the source; they are usually repeats but may differ in a detail not shown here. Equal values may be shown once.

Assays:
HEK-Blue™ CD40 cells = test: HEK-Blue CD40 SEAP reporter co-culture with transduced Jurkat cells; format: cell-based; settings: ligand 24 h (1 μM Shield-1, 50 μM TMP or 1 μM Bazedoxifene), recombinant soluble CD40L as standard
Protocol: Jurkat cells transduced with OT-001661, OT-001685, OT-001662, OT-001666, or OT-001667 were co-cultured with HEK-Blue™ CD40 cells (Invivogen, San Diego, Calif.). Cocultures were treated with ligands (1 μM Shield-1, 50 μM TMP, 1 μM Bazedoxifene (BZD) or vehicle control) for 24 hours and the secreted embryonic alkaline phosphatase (SEAP) reporter levels were measured in the media. All vehicle treated samples had background SEAP activity. Recombinant soluble CD40L was used as the standard in the experiments.

[1] = system: T cells (CD4 and CD8 positive); test: CD40L MFI in vitro in CD4 and CD8 positive T cells, 10 μM TMP; format: cell-based
Protocol: T cells were transduced with OT-001662 and then treated with 10 μM TMP on day 4. CD40L expression was analyzed by FACS both in the CD4 and CD8 positive T cell populations.

CD4+ T cells = test: Ligand dose response, % CD40L positive cells, CD4+ T cells; format: cell-based
Protocol: Ligand dose response curve experiments were performed with increasing doses of ligand using OT-001662 and OT-001666 constructs in both CD4+ as well as CD8+ T cells.
The experiments were conducted using three different volumes of virus for transduction i.e. 0.5, 2 and 10 μL.

CD8 positive T cells = test: CD40L MFI by FACS in transduced CD8 positive T cells; format: cell-based
Protocol: Regulation of ecDHFR (R12Y, Y100I) DRD based construct OT-001662 and ER (N413D) DRD based construct OT-001666 were tested in CD8 positive T cells. For OT-001662, expressing cells, ligand was added 6 days after viral transduction at a dose of 50 μM TMP. OT-001666 expressing cells were treated with 0.5 μM Bazedoxifene or vehicle control, 5 days after transduction. Approximately 15-30k cells were analyzed per sample by FACS. All samples were compared to empty vector control as well as the constitutively expressed construct, OT-001661. Table 11 provides the mean fluorescence intensities (MFIs) obtained with each sample.

T cells = test: % CD40L positive cells in vivo, transduced T cells in NSG mice dosed with TMP; parameters: species or system NSG female mice
Protocol: Based on the in vitro data, regulatability of CD40L constructs in vivo was tested. 10-week old NSG female mice were injected with T cells transduced with one of the following constructs empty vector, OT-001661, and OT-001662 (day 0). On day 1, mice were pre-bled prior to dose with ligand. On day 2, mice were dosed every 4 hours with TMP at 500 mg/kg body weight of the mouse or vehicle control. Two hours after every dose, blood was collected from the mice to measure CD40L levels. On day 3, i.e. 24 hours after the first dose, mice were terminally bled for analysis. The values in bold represent the average values for each bleed.

T cells (CD4+ and CD8+) = test: Regulation of CD40L in T cells by different drug responsive domains; format: cell-based
Jurkat cells = test: Surface expression of CD40L by FACS in lentivirally transduced Jurkat cells; format: cell-based; settings: FACS
Protocol: 50,000 Jurkat cells were transduced with lentiviruses corresponding to the constructs. OT-001661, OT-001685, OT-001662, or OT-001666 and cultured for 48h. Cells were split and incubated with ligands for 24h before analysis by flow cytometry.
Jurkat cells were treated with one of the following: 1 μM Shield-1, 50 μM TMP, 1 μM Bazedoxifene (BZD) or vehicle control. Surface expression of CD40L was measured using FACS and the results are show in Table 9. All values were normalized to mode.

[2] = ligand 24 h (1 μM Shield-1 OT-001685, 50 μM TMP OT-001662, 1 μM Bazedoxifene OT-001666)
[3] = vehicle 24 h (Ethanol 0.2% OT-001685, DMSO 0.5% OT-001662, DMSO 0.01% OT-001666)

B1: OT-001662: CD40L construct with ecDHFR (M1del, R12Y, Y100I) DRD, ligand TMP (protein)
chain: MSGISLIAALAVDYVIGMENAMPWNLPADLAWFKRNTLNKPVIMGRHTWESIGRPLPGRKNIILSSQPGTDDRVTWVKSVDEAIAACGDVPEIMVIGGGRVIEQFLPKAQKLYLTHIDAEVEGDTHFPDYEPDDWESVFSEFHDADAQNSHSYCFEILERRHMIETYNQTSPRSAATGLPISMKIFMYLLTVFLITQMIGSALFAVYLHRRLDKIEDERNLHEDFVFMKTIQRCNTGERSLSLLNCEEIKSQFEGFVKDIMLNKEETKKENSFEMQKGDQNPQIAAHVISEASSKTTSVLQWAEKGYYTMSNNLVTLENGKQLTVKRQGLYYIYAQVTFCSNREASSQAPFIASLCLKSPGRFERILLRAANTHSSAKPCGQQSIHLGGVFELQPGASVFVNVTDPSQVSHGTGFTSFGLLKL
- Soluble CD40L (HEK-Blue™ CD40 cells): 8657.75 pg/mL
- CD40L MFI in vitro ([1]; CD4+, TMP (10 μM)): 10159
- CD40L MFI in vitro ([1]; CD4+, Vehicle): 348
- CD40L MFI in vitro ([1]; CD8+, TMP (10 μM)): 4893
- CD40L MFI in vitro ([1]; CD8+, Vehicle): 182
- % CD40L positive cells (CD4+ T cells; 0.5 μL virus, TMP 0.05 nM): 31.6%
- % CD40L positive cells (CD4+ T cells; 0.5 μL virus, TMP 0.5 nM): 32%
- % CD40L positive cells (CD4+ T cells; 0.5 μL virus, TMP 5 nM): 33.9%
- % CD40L positive cells (CD4+ T cells; 0.5 μL virus, TMP 50 nM): 35.7%
- % CD40L positive cells (CD4+ T cells; 0.5 μL virus, TMP 500 nM): 48.2%
- % CD40L positive cells (CD4+ T cells; 0.5 μL virus, TMP 5000 nM): 67%
- % CD40L positive cells (CD4+ T cells; 0.5 μL virus, TMP 50000 nM): 68.9%
- % CD40L positive cells (CD4+ T cells; 2 μL virus, TMP 0.05 nM): 25.1%
- % CD40L positive cells (CD4+ T cells; 2 μL virus, TMP 0.5 nM): 24.4%
- % CD40L positive cells (CD4+ T cells; 2 μL virus, TMP 5 nM): 27.6%
- % CD40L positive cells (CD4+ T cells; 2 μL virus, TMP 50 nM): 37.4%
- % CD40L positive cells (CD4+ T cells; 2 μL virus, TMP 500 nM): 68.4%
- % CD40L positive cells (CD4+ T cells; 2 μL virus, TMP 5000 nM): 76.8%
- % CD40L positive cells (CD4+ T cells; 2 μL virus, TMP 50000 nM): 76.8%
- % CD40L positive cells (CD4+ T cells; 10 μL virus, TMP 0.05 nM): 23.8%
- % CD40L positive cells (CD4+ T cells; 10 μL virus, TMP 0.5 nM): 24.2%
- % CD40L positive cells (CD4+ T cells; 10 μL virus, TMP 5 nM): 24.6%
- % CD40L positive cells (CD4+ T cells; 10 μL virus, TMP 50 nM): 30.7%
- % CD40L positive cells (CD4+ T cells; 10 μL virus, TMP 500 nM): 58.5%
- % CD40L positive cells (CD4+ T cells; 10 μL virus, TMP 5000 nM): 79.1%
- % CD40L positive cells (CD4+ T cells; 10 μL virus, TMP 50000 nM): 78.8%
- Expression of CD40L in the presence of ligand, comparison of constructs (CD8 positive T cells): higher than the ER DRD based construct
- CD40L MFI (CD8 positive T cells; +Ligand (50 μM TMP OT-001662; 0.5 μM Bazedoxifene OT-001666)): 283
- CD40L MFI (CD8 positive T cells; Vehicle): 29.0
- % CD40L positive cells in vivo (T cells; 0 hours, average, TMP 500 mg/kg every 4 hours): 1.0%
- % CD40L positive cells in vivo (T cells; 0 hours, average, Vehicle): 0.9%
- % CD40L positive cells in vivo (T cells; 0 hours, individual values, TMP 500 mg/kg every 4 hours): 0.9% (2×) and 0.4% and 1.8%
- % CD40L positive cells in vivo (T cells; 0 hours, individual values, Vehicle): 0.8% and 0.9% and 0.1% and 1.8%
- % CD40L positive cells in vivo (T cells; 2 hours, average, TMP 500 mg/kg every 4 hours): 8.6%
- % CD40L positive cells in vivo (T cells; 2 hours, average, Vehicle): 0.9%
- % CD40L positive cells in vivo (T cells; 2 hours, individual values, TMP 500 mg/kg every 4 hours): 11.8% and 13.0% and 9.6% and 0.0%
- % CD40L positive cells in vivo (T cells; 2 hours, individual values, Vehicle): 0.6% and 1.0% and 0.0% and 1.9%
- % CD40L positive cells in vivo (T cells; 6 hours, average, TMP 500 mg/kg every 4 hours): 19.9%
- % CD40L positive cells in vivo (T cells; 6 hours, average, Vehicle): 0.3%
- % CD40L positive cells in vivo (T cells; 6 hours, individual values, TMP 500 mg/kg every 4 hours): 22.1% and 25.7% and 13.8% and 18.0%
- % CD40L positive cells in vivo (T cells; 6 hours, individual values, Vehicle): 0.3% and 0.4% and 0.5% and 0.2%
- % CD40L positive cells in vivo (T cells; 10 hours, average, TMP 500 mg/kg every 4 hours): 20.1%
- % CD40L positive cells in vivo (T cells; 10 hours, average, Vehicle): 0.1%
- % CD40L positive cells in vivo (T cells; 10 hours, individual values, TMP 500 mg/kg every 4 hours): 26.0% and 21.4% and 0.0% and 33.1%
- % CD40L positive cells in vivo (T cells; 10 hours, individual values, Vehicle): 0.0% (3×) and 0.3%
- % CD40L positive cells in vivo (T cells; 24 hours, average, TMP 500 mg/kg every 4 hours): 12.0%
- % CD40L positive cells in vivo (T cells; 24 hours, average, Vehicle): 0.6%
- % CD40L positive cells in vivo (T cells; 24 hours, individual values, TMP 500 mg/kg every 4 hours): 1.2% and 0.8% and 18.9% and 27.2%
- % CD40L positive cells in vivo (T cells; 24 hours, individual values, Vehicle): 0.0% and 0.3% and 1.4% and 0.7%
- CD40L positive (T cells (CD4+ and CD8+); All Cells, 10 uM TMP): 89.7%
- MFI (T cells (CD4+ and CD8+); All Cells, 10 uM TMP): 2122
- CD40L positive (T cells (CD4+ and CD8+); All Cells, DMSO): 7.6%
- MFI (T cells (CD4+ and CD8+); All Cells, DMSO): 140
- CD40L positive (T cells (CD4+ and CD8+); CD4+, 10 uM TMP): 94.4%
- MFI (T cells (CD4+ and CD8+); CD4+, 10 uM TMP): 2608
- CD40L positive (T cells (CD4+ and CD8+); CD4+, DMSO): 8.8%
- MFI (T cells (CD4+ and CD8+); CD4+, DMSO): 152
- CD40L positive (T cells (CD4+ and CD8+); CD8+, 10 uM TMP): 74.9%
- MFI (T cells (CD4+ and CD8+); CD8+, 10 uM TMP): 1070
- CD40L positive (T cells (CD4+ and CD8+); CD8+, DMSO): 91.8%
- MFI (T cells (CD4+ and CD8+); CD8+, DMSO): 2.1
- CD40L positive percent of live cells (Jurkat cells; [2]): 98.4%
- Geometric Mean of CD40L fluorescent intensity (Jurkat cells; [2]): 6068
- CD40L positive percent of live cells (Jurkat cells; [3]): 0.023%
- Geometric Mean of CD40L fluorescent intensity (Jurkat cells; [3]): 27.9
